Assay results: patent publication KR20220012792A (dated 2022)
Like-named read-outs stand apart in the source and are kept apart here.

Assays:
Assay in all cases: cell-based or functional assay
[1] = target: T1, S 단백질 of SARS-CoV-2 BetaCoV/Korea/KCDC03/2020 (614D, S형) (SARS-CoV-2)
[2] = target: T1, S 단백질 of SARS-CoV-2 …; remark: listed apart in the source
[3] = target: T1, S 단백질 of SARS-CoV-2 …; remark: listed apart in the source
[4] = target: S 단백질 of SARS-CoV-2 hCoV-19/Korea/KCDC31/2020 (V형) (SARS-CoV-2)
[5] = target: S 단백질 of SARS-CoV-2 hCoV-19/South Korea/KNIH04/2020 (L형) (SARS-CoV-2)

B1: No. 139 항체 (Full IgG) (antibody, V domains shown)
VH: QITLKESGPTLVKPTQTLTLTCSFSGFSLSTSGVGVGWIRQPPGKALEWLALIDWDDNKYHTTSLKTRLTISKDTSKNQVVLTMTNMDPVDTATYYCARIPGFLRYRNRYYYYGMDVWGQGTTVTVSS
VL: ELVLTQPPSVSAAPGQKVTISCSGSSSNIGNNYVSWYQQLPGTAPKLLIYDNNKRPSGIPDRFSGSKSGTSATLGITGLQTGDEADYYCGTWDSSLSAGVFGGGTELTVL
For B1, the “IC50 (ng/ml), PRNT” value [1] was 4.1 ng/mL, the “IC50, PRNT” value [1] was 8.37 ng/mL and the “IC50 (ng/ml), PRNT” value [2] was 29.8 ng/mL. The “IC50 (ng/ml), PRNT” value [3] was 6.76 ng/mL, the “IC50 (ng/ml), PRNT” value [4] was 8 ng/mL and the “IC50 (ng/ml), PRNT” value [5] was 4.79 ng/mL.
